Data reported in paper PMC4856535 (Nature structural & molecular biology, 2016).
Numbering of substitutions follows the chain as printed. In names and notes the source's numbering stands.

T1: His-GFP-caspase-1^CARD (wild type) (human, UniProt P29466 1-91)
T1 sequence (looked up): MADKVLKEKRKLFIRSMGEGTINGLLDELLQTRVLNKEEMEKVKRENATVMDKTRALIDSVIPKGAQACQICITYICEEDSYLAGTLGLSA

B1: His-tagged human inhibitor of CARD (INCA) (natural protein, UniProt Q5XLA6 1-110, looked up)
chain: MADKVLKEKRKQFIRSVGEGTINGLLGELLETRVLSQEEIEIVKCENATVMDKARALLDSVIRKGAPACQICITYICEEDSHLAGTLGLSAGPTSGNHLTTQDSQIVLPS
B2: INCA R55E (natural protein, human, UniProt Q5XLA6 1-110, looked up)
chain: B1 chain with R55E
B3: His-MBP-ICEBERG (natural protein, human)
chain: ADQLLRKKRRIFIHSVGAGTINALLDCLLEDEVISQEDMNKVRDENDTVMDKARVLIDLVTGKGPKSCCKFIKHLCEEDPQLASKMGLH

How the values were obtained:
[1] = molecular target: TAMRA-labeled caspase-1^CARD-SUMO with C-terminal sortase motif (His-MBP removed by TEV protease in the assay) (human) (UniProt P29466); experiment: fluorescence polarisation
[2] = molecular target: T1, His-GFP-caspase-1^CARD (wild type); experiment: fluorescence polarisation
[3] = molecular target: the molecule itself; experiment: SEC

Molecule | Ki [2] [nM] | other results
His-tagged human inhibitor of CARD (INCA) (from UniProt Q5XLA6 1-110) (natural protein) |  | Ki [1]: 9.4 nM
B1 | 4.3 ± 1.4 | 
B2 | ~1700 | 
B3 |  | binding result [3]: binds
